Test results: PMC11180011

Test system: T1, DasR (Streptomyces lincolnensis NBRC_13054), ORF:7245352e
T1 sequence: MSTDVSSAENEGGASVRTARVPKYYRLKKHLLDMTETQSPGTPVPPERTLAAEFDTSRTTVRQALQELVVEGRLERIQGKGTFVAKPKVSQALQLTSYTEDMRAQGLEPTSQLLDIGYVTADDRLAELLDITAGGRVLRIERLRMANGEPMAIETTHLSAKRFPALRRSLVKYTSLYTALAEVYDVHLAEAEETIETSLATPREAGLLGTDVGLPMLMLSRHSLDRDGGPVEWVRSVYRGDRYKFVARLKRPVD
Test: EMSA
Conditions: EMSA kit, 20 uL, 50 ng/uL Cy5 probe, 6% non-denaturing PAGE; fifth lane with 10 mg/mL salmon sperm DNA; buffer, pH, salt and temperature not given

Sequence | binding
AGCCAGTGGCGATAAGACGCACGTACGCAACTCCTTTCGGTTTCCCAGGAGTCACTCCCCGGTCCGGACGGGACATGAACTAATTCAGCTACTTATCGGTCAATCTTGAGCGCGTAGTGCCTTCATGTGGTCGGCAATGCCAGGTTCATGACATTCTCGAATGCTCGGCAATCACAGGCCCTACCGGCGGGGAGGACGCTGGTGGAGTTCGAGATCTTATCGCCACTGGCT (double strand) [SLINC_4481 promoter] | no binding
AGCCAGTGGCGATAAGAGGGCCTGGATGAGCTGCCTGTCCACCGCGTCCATGCGATCGAAGCCTTCCGATGAAGAGATCCCGAAGTGATGAGAGGTACTGCCCTGTGCCCTGCTGCTCTGTGCCGTGCTGCCCTGTGCCCTACTGCCCTGTGTCCTCTTATCGCCACTGGCT (double strand) [SLINC_4906 promoter] | no binding
AGCCAGTGGCGATAAGATATCCTCTTTCCCCGGGAGAGCCGGTCCCCGTGGTTGTCGCGACGGATGCTGTGGGTCTTCGGCGGGGTGTTCGCCCTCGGTACGGCACTCTTCGCGCTGATTTCCCTCCTGCGGTCGGATTTCCGCCTCTCCGTGGTCGAGATCGGTGCGGTGCTCGCGATCGTGGGACTGCTGACCTGGGCCGCTTCACGCTGCCAGGCCCGAGACACACCGTGTGTACCGAAGCGACTGCCTGGGACGCTACGGGCCGGATGGACTTATCGCCACTGGCT (double strand) [lmrA promoter] | no binding
AGCCAGTGGCGATAAGATGACATGTCTCACGGGGGACAGTGTGACCCCAGGACCCGCAAGAGGTCTAGTCCACTCACGTGGTGTAGACCTTAGGGCGGCAATATGTATGACCTTTCGAGAGTTTTTCGATCAGTGATCTTGAGGCGGTTGGCAGTGCGGCGGCGTAGGACTTATCGCCACTGGCT (double strand) [nagK promoter] | binds
AGCCAGTGGCGATAAGATGACTCAAAAGACTCTCCTCACCACACGCGCCACGTAACGGTGGGCACGTGGCGCGCATGACGTTCGTGCAGAAGCAGTTGTCGTTGTGGACGCAGGCACCGGTGGCCCGCTTATTCAGTTGTGAAGTCTGGTTGCGCGACGCGGCGCGCGAAGTCTGTTGCTAGAGCTCTTATCGCCACTGGCT (double strand) [SLINC_6156 promoter] | no binding
AGCCAGTGGCGATAAGGCTGGGCCTGCCGTTCTCAAGGGGCTGCACGGGGTGTGTGGTTTAGACCAATCCAGCCTCCAATCTAACAGAACCTCGCCCGGCCTCCCAGGTCTGCCGGGTGTCCCGGAGATGACCGGAAACCCTCGGCGAGGGCACCCCTCGCCCCGCGGTCCCTACGTCAGCGAACTTATCGCCACTGGCT (double strand) [nagB promoter] | binds
AGCCAGTGGCGATAAGGGTTCCTGCATATGTAGCTCGTATAACGGCTGGTCAGAGCCGTTCCAGCACTCTTGACAGGTGTATTGGCCTGGTCCAAGCTCCGGGTACTGGTCTACACCATTGGTCCAGGTCCCGGCTCCATGGGCGGGGGGTGTGGGCATCCCTGAGGAGGCTTATCGCCACTGGCT (double strand) [dasA promoter] | binds
AGCCAGTGGCGATAAGTCACTCGGTCTTCCCGTCCGCCGGACCGCCAACCCCTACCTCGCCAGGGCCCTGGGATAGGCCGGCGGGCGGCGCCGCCCGTGACGCGTAGCTGCCCTGGACGAAGGAGGCCACGCGTCGGCCGCGCCACTCCTGCGGGGCGCCCGGGCCGAGCGCGGTGACCGTGCCGGGCTGCGTAGGCTCACAGACATGGCTGAGATCGGGCTGCGTGCTTATCGCCACTGGCT (double strand) [SLINC_3938 promoter] | no binding
